Read-outs that look alike come from different tables or passages of the source. * marks the point of attachment. BODIPYFLEthylmaleimide = Cc1cc(C)n2c1C=C1C=CC(CCC(=O)NCCN3C(=O)CC(*)C3=O)=[N+]1[B-]2(F)F
T1: NEMO (NF-kB essential modulator), murine (murine, UniProt O88522 1-412)
T1 chain: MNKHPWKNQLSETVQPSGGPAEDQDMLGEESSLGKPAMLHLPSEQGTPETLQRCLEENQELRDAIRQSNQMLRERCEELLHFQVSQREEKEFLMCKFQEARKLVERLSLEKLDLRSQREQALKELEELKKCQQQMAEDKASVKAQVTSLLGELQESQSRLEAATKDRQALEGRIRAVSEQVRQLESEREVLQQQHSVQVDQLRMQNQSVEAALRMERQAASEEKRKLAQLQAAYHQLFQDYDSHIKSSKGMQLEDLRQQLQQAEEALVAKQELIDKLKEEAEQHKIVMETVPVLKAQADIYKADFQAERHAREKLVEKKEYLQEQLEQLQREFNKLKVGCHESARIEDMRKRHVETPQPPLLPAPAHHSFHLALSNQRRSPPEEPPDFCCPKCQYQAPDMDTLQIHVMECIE

B1: BODIPY-R9-NLM-DR (peptide)
peptide: Ac-C(BODIPYFLEthylmaleimide)RRRRRRRRRLKAQADIYKARFQAERHAREK-NH2
modifications: not fully specified
B2: BODIPY-Ant-LZ (WT) (peptide)
peptide: Ac-C(BODIPYFLEthylmaleimide)RQIKIWFQNRRMKWKKLKAQADIYKADFQAERHAREKLVEKKEYLQEQLEQLQREFNKL-NH2
notes: Synthetic fusion peptide; also called cell permeable LZ
B3: CC2 (WT) (peptide)
peptide: Ac-SKGMQLEDLRQQLQQAEEALVAKQELIDKLKEEAEQHKIV-NH2
notes: Synthetic peptide; Forms a trimer by gel filtration at 10 uM; also called CC2 peptide; CC2 wild type
B4: BODIPY-TAT-NLM-DR (peptide)
peptide: Ac-C(BODIPYFLEthylmaleimide)YGRKKRRQRRRLKAQADIYKARFQAERHAREK-NH2
SMILES: CC[C@H](C)[C@H](NC(=O)[C@H](CC(=O)O)NC(=O)[C@H](C)NC(=O)[C@H](CCC(N)=O)NC(=O)[C@H](C)NC(=O)[C@H](CCCCN)NC(=O)[C@H](CC(C)C)NC(=O)[C@H](CCCNC(=N)N)NC(=O)[C@H](CCCNC(=N)N)NC(=O)[C@H](CCCNC(=N)N)NC(=O)[C@H](CCC(N)=O)NC(=O)[C@H](CCCNC(=N)N)NC(=O)[C@H](CCCNC(=N)N)NC(=O)[C@H](CCCCN)NC(=O)[C@H](CCCCN)NC(=O)[C@H](CCCNC(=N)N)NC(=O)CNC(=O)[C@H](Cc1ccc(O)cc1)NC(=O)[C@H](CSC1CC(=O)N(CCNC(=O)CCC2=[N+]3C(=Cc4c(C)cc(C)n4[B-]3(F)F)C=C2)C1=O)NC(C)=O)C(=O)N[C@@H](Cc1ccc(O)cc1)C(=O)N[C@@H](CCCCN)C(=O)N[C@@H](C)C(=O)N[C@@H](CCCNC(=N)N)C(=O)N[C@@H](Cc1ccccc1)C(=O)N[C@@H](CCC(N)=O)C(=O)N[C@@H](C)C(=O)N[C@@H](CCC(=O)O)C(=O)N[C@@H](CCCNC(=N)N)C(=O)N[C@@H](Cc1c[nH]cn1)C(=O)N[C@@H](C)C(=O)N[C@@H](CCCNC(=N)N)C(=O)N[C@@H](CCC(=O)O)C(=O)N[C@@H](CCCCN)C(N)=O
B5: BODIPY-R7-NLM-DR (peptide)
peptide: Ac-C(BODIPYFLEthylmaleimide)RRRRRRRLKAQADIYKARFQAERHAREK-NH2
SMILES: CC[C@H](C)[C@H](NC(=O)[C@H](CC(=O)O)NC(=O)[C@H](C)NC(=O)[C@H](CCC(N)=O)NC(=O)[C@H](C)NC(=O)[C@H](CCCCN)NC(=O)[C@H](CC(C)C)NC(=O)[C@H](CCCNC(=N)N)NC(=O)[C@H](CCCNC(=N)N)NC(=O)[C@H](CCCNC(=N)N)NC(=O)[C@H](CCCNC(=N)N)NC(=O)[C@H](CCCNC(=N)N)NC(=O)[C@H](CCCNC(=N)N)NC(=O)[C@H](CCCNC(=N)N)NC(=O)[C@H](CSC1CC(=O)N(CCNC(=O)CCC2=[N+]3C(=Cc4c(C)cc(C)n4[B-]3(F)F)C=C2)C1=O)NC(C)=O)C(=O)N[C@@H](Cc1ccc(O)cc1)C(=O)N[C@@H](CCCCN)C(=O)N[C@@H](C)C(=O)N[C@@H](CCCNC(=N)N)C(=O)N[C@@H](Cc1ccccc1)C(=O)N[C@@H](CCC(N)=O)C(=O)N[C@@H](C)C(=O)N[C@@H](CCC(=O)O)C(=O)N[C@@H](CCCNC(=N)N)C(=O)N[C@@H](Cc1c[nH]cn1)C(=O)N[C@@H](C)C(=O)N[C@@H](CCCNC(=N)N)C(=O)N[C@@H](CCC(=O)O)C(=O)N[C@@H](CCCCN)C(N)=O
B6: BODIPY-Ant-NLM-DR (peptide)
peptide: Ac-C(BODIPYFLEthylmaleimide)RQIKIWFQNRRMKWKKLKAQADIYKARFQAERHAREK-NH2
SMILES: CC[C@H](C)[C@H](NC(=O)[C@H](CC(=O)O)NC(=O)[C@H](C)NC(=O)[C@H](CCC(N)=O)NC(=O)[C@H](C)NC(=O)[C@H](CCCCN)NC(=O)[C@H](CC(C)C)NC(=O)[C@H](CCCCN)NC(=O)[C@H](CCCCN)NC(=O)[C@H](Cc1c[nH]c2ccccc12)NC(=O)[C@H](CCCCN)NC(=O)[C@H](CCSC)NC(=O)[C@H](CCCNC(=N)N)NC(=O)[C@H](CCCNC(=N)N)NC(=O)[C@H](CC(N)=O)NC(=O)[C@H](CCC(N)=O)NC(=O)[C@H](Cc1ccccc1)NC(=O)[C@H](Cc1c[nH]c2ccccc12)NC(=O)[C@@H](NC(=O)[C@H](CCCCN)NC(=O)[C@@H](NC(=O)[C@H](CCC(N)=O)NC(=O)[C@H](CCCNC(=N)N)NC(=O)[C@H](CSC1CC(=O)N(CCNC(=O)CCC2=[N+]3C(=Cc4c(C)cc(C)n4[B-]3(F)F)C=C2)C1=O)NC(C)=O)[C@@H](C)CC)[C@@H](C)CC)C(=O)N[C@@H](Cc1ccc(O)cc1)C(=O)N[C@@H](CCCCN)C(=O)N[C@@H](C)C(=O)N[C@@H](CCCNC(=N)N)C(=O)N[C@@H](Cc1ccccc1)C(=O)N[C@@H](CCC(N)=O)C(=O)N[C@@H](C)C(=O)N[C@@H](CCC(=O)O)C(=O)N[C@@H](CCCNC(=N)N)C(=O)N[C@@H](Cc1c[nH]cn1)C(=O)N[C@@H](C)C(=O)N[C@@H](CCCNC(=N)N)C(=O)N[C@@H](CCC(=O)O)C(=O)N[C@@H](CCCCN)C(N)=O

Legend:
[1] = molecular target: T1, NEMO (NF-kB essential modulator), murine; test: cell-based or functional assay
[2] = molecular target: T1, NEMO (NF-kB essential modulator), murine; test: cell-based or functional assay
[3] = molecular target: T1, NEMO (NF-kB essential modulator), murine; test: cell-based or functional assay
CC2 (WT) = molecular target: B3; test: fluorescence anisotropy, fixed BODIPY-Ant-LZ (0.1 µM) with CC2
Description: (A) Direct titration of BODIPY-Ant-CC2 (1 μM) with CC2 by fluorescence anitropy. The concentration of CC2 was determined by amino acid analysis. Anisotropy values of BODIPY-Ant-CC2 in milliunits (mA) were plotted against an increasing concentration of the CC2 peptide. […] The two dashed lines represent a stoichiometric titration and intersect at an CC2 concentration of 16 μM. Given the 1 μM concentration of the BODIPY-Ant-CC2, this gives a complex stoechiometrie of 0.8. (B) Direct titration of BODIPY-Ant-LZ (0.1 μM with CC2 by fluorescence anitropy. The anisotropy values of the BODIPY-Ant-LZ alone (white bar) or in the presence of the CC2 peptide (30 μM, grey bar; 100 μM, black bar) are given in milliunits (mA).
Anisotropy measurements were performed with a PTI Quantamaster fluorometer equipped with polarizers for the excitation and emission beams. This instrument uses a PMT in the L-configuration. […] Steady-state fluorescence anisotropy was expressed as millianisotropy (mA) and was calculated according to the equations: (1) A=(I_VV-GIVH)/(IVV+2GIVH); (2) G=IHV/IHH.; where A is anisotropy, G is a correction factor for wavelength-dependent distortion and I is the fluorescence intensity component (subscript referring to the vertical and horizontal positioning at the excitation and emission polarizers, respectively). […]

[4] = molecular target: the molecule itself; test: gel filtration (Superdex 75) at 10 µM, self-association
Description: The oligomeric states of peptides were determined by filtration as described in Traincard et al., 2003. In brief, 500 μl samples were loaded on a Superdex 75 HR 10/30 column equilibrated in 50 mM Tris-HCl pH 8.0 containing 200 mM NaCl and 0.1 mM DDM, at a constant flow rate of 0.4 ml/min. The presence of the DDM detergent was added in the equilibrium buffer to minimize the adsorption in the column and to increase the peptide recovery. The column was calibrated in the same equilibrium buffer with blue dextran 2000 (void volume), dithioerythritol (total volume), bovine serum albumin (67 kDa, Rs=35.2 Å), ovalbumine (43 kDa, Rs=27.5 Å), chymotrypsinogen A (25 kDa, Rs=21.1 Å), ribonuclease A (13.7 kDa, Rs=16.4 Å), cytochrome C (12.4 kDa, Rs=17.7 Å) and aprotinin (6.5 KDa, Rs=13.5 Å).
The antennapedia sequence is a protein transduction domain (PTD) which adopts an alpha-helical amphiphatic structure (Prochiantz, 2000, Curr. Opin. Cell Biol.). […] To examine the effect of N-fusion of the antennapedia peptide on the oligomerization properties of the CC2 and the LZ peptides, the present inventors analyzed peptides containing or not containing the antennapedia sequence at their N-terminus by gel filtration. […]

**Q.** How did the IC50 of inhibition of LPS-induced NF-κB activation (β-galactosidase reporter, 70Z3-C3 cells) [1] turn out when BODIPY-Ant-CC2 (WT) (peptide) was run?
**A.** 22000 nM

**Q.** And the fold reduction of LPS-induced NF-κB activation at 10 µM (stringent β-galactosidase assay) [1]?
**A.** 1.7 fold

**Q.** And the reduction of NF-κB activity at 20 µM after LPS stimulation of B lymphocytes [1]?
**A.** 70%

**Q.** How did the “IC 50 (inhibition of NF-κB activation pathway)” value [2] turn out when B1 was run?
**A.** 900 nM

**Q.** How did the “IC50 of inhibition of LPS-induced NF-κB activation (β-galactosidase reporter, 70Z3-C3 cells)” value [3] turn out when B2 was run?
**A.** 3000 nM

**Q.** What about the “fold reduction of LPS-induced NF-κB activation at 10 µM (stringent β-galactosidase assay)” value [3] of the same molecule?
**A.** 5.8 fold

**Q.** Does B2 bind (CC2 (WT))?
**A.** binds

**Q.** Does B3 bind [4]?
**A.** binds

**Q.** Which “IC 50 (inhibition of NF-κB activation pathway)” value [2] does the source give for B4 here?
**A.** 1000 nM

**Q.** For B5, which “IC 50 (inhibition of NF-κB activation pathway)” value [2] is on record?
**A.** 900 nM

**Q.** B6 was tested. Which “IC 50 (inhibition of NF-κB activation pathway)” value [2] did it give?
**A.** 1100 nM

Source: patent publication US20080242601A1 (INSTITUTE PASTEUR, published 2008)
